# Tests used:
# [1] = tested on: MS2 coat protein; experiment: apparent KD of MS2 coat protein; higher = weaker reporter binding; details: Eterna round: R101
# Procedure: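 RNA-MaP: designed FMN/MS2 RNA switches (84 nt design region) are transcribed on-chip within common flanks and titrated with SNAP-549-labelled MS2 coat protein (about 1-3000 nM) in 100 mM Tris pH 7.5, 80 mM KCl, 4 mM MgCl2, without or with 200 uM FMN. Median apparent KD per design; activation ratio = KD,OFF / KD,ON.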
# [2] = tested on: MS2 coat protein; experiment: apparent KD of MS2 coat protein, switch OFF state (with FMN for OFF switches, without FMN for ON switches); designed switch direction (-1 OFF switch, 1 ON switch): 1; higher = weaker reporter binding; details: FMN input: 0 or 200 uM; Eterna round: R93 (includes R88 designs)
# Method in brief: (§1)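 Designed RNA switches were transcribed on-chip from Illumina sequencing clusters. They were then titrated with SNAP-549-labelled MS2 coat protein (twofold steps, 0.7 or 1.5 nM to 3 µM; 0.8–1.5 h to 10–20 min per step) in 100 mM Tris-HCl pH 7.5, 80 mM KCl, 4 mM MgCl2, without or with constant ligand. Apparent KD is the per-design median of normalised cluster binding-curve fits.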
# [3] = tested on: MS2 coat protein; experiment: apparent KD of MS2 coat protein, switch ON state; designed switch direction (-1 OFF switch, 1 ON switch): 1; higher = weaker reporter binding; details: FMN input: 0 or 200 uM; Eterna round: R93 (includes R88 designs)
# Method in brief: as §1
Sequence,apparent KD of MS2 coat protein ([1]; input ligand: FMN 200 uM) [nM],apparent KD of MS2 coat protein ([1]; input ligand: none) [nM],apparent KD of MS2 coat protein [2] [nM],apparent KD of MS2 coat protein [3] [nM]
AAAUAAACUCAAGGAUAUCAGUGGCAAAGCCACUGAGAAGGUGAGGAUCACCCACCUAAGAUCACAGGUGACGAAAGUCACCUG [#SharedSequence ExNG1 - 37] (puzzle (switch architecture): Exclusion NG 1),17.6,11.2,–,–
AGAAACUACGAGAAGGACAUGUGGUCCUUCAAAAAAAUGAGGAUCACCCAUGUAGGAUAUCGUAGUUUCAGGAUCGUGAGAUCA [salish99_ISLExNG1_x101 #HINGE] (puzzle (switch architecture): Inverted Small Loop Exclusion NG 1),9.58,30,–,–
AAGAAACAUGAGGAUCACCCAUGUGAGAAAAACACAGGAUAUGCAAAAGAAAGAAAGAAAGCAGAAGGGUGAAGAA [Mat - Same State 1 - Tesla mod - 52],–,–,74,22.5
"AGAAAUAAAUGAGAGGAUAUCCAAAAGAAAACAUGAGGAUCACCCAUGUAAAAGAAAAUAAAAUGGGAGAAGGCUCAAAAUAAAG [80%, More Helter Skelter 2]",–,–,58.5,23.5
CGGAGACAUGAGGAUCACCCAUGUGAGAAGAGGCGAGGAUAUCGAAAGAAAGAAGAGAAAUGAGAAGGCGCGAGCC [salish99-SS1-081],–,–,39,36.2
CGCGAACAUGAGGAUCACCCAUGUAAAUCGCAUGUAGGAUAUGGGAUACACAUUAAGAUCCCAGAAGGGCGGAAAA [Leeroner],–,–,23.5,23.8
UAGAGACAUGAGGAUCACCCAUGUAGGAUUAUGGGAGGAUAUACAAAGACGAGAGUCAGAGUAGAAGGCCUAGGAA [salish99-ss1-133(!)],–,–,74.6,24.9
UGUUCGAGUAGUGAGGAUAUUCAUGGGCCCACAUGAGGAUCACCCAUGUAAUGGACCGGGCCGAAGGAGAAGGCGCGUAAAAUUA [Atceve],–,–,140,38.2
AACUAACAUGAGGAUCACCCAUGUAUUCAAACAUGAGGAUAUAUAACACAUCAUCGACGGAUAGAAGGCAUAAAUA [JR_SS001_Sub1206],–,–,86.6,92
"AAGAAACAUGAGGAUCACCCAUGUAAGAAUAUGGGAGGAUAUGCGAAAAGAAACAAAGAAGCAGAAGGCCUAAGAA [75%, Ex5 sub 1, 5]",–,–,57.6,26.6
CAUCAUGCGCCUAAGGAUAUGUCUCACAAGACAUGAGGAUCACCCAUGUAGAACAAAUAAGUGAUGCAGAAGGUGGAGCGCAUGC [Edcequed],–,–,137,18.9
ACUACACAUGAGGAUCACCCAUGUCAGGUGGGACUAGGAUAUUAUAAACCAGAGUAAUUAUAAGAAGGAGUAGAAA [JR_SS001_Sub307],–,–,42.2,32.6
"AGGAAACAUGAGGAUCACCCAUGUAAAAAUAUGGGAGGAUAUACUAGAAGAAACAAAAUAGUAGAAGGCCUAAAAA [75%, Ex sub1, 26]",–,–,47.4,17.4
AGACAUAACAGAGAGGAUAUCCAAUAGAAAACAUGAGGAUCACCCAUGUGAAAGAUAAUAAAAUGGGAGAAGGCUCACAUACAGA [Topaz 40],–,–,30.4,19.5
AACUACAUUAUGAAGGAUAUCCACAUCAAGACAUGAGGAUCACCCAUGUAAACUUAGAACAUACAGGAGAAGGUCAAGGGUGAAU [JR_SS002_Sub1206],–,–,69.2,234
UCAAAACAUGAGGAUCACCCAUGUAGCCUAAAGCGAGGAUAUGGGUUUCUUUAAAGAGUACCAGAAGGCGCCAAAA [Enenala],–,–,91.1,27.9
GAAAAACAUGAGGAUCACCCAUGUAGAAAUAUGGGAGGAUAUACAAAGACGAAAGUCAAAGUAGAAGGCCUAUAAG [Starry Same State 1.5 (mat747 round 1 mod)],–,–,33.3,17.7
AAAAGGGCGACACAGGAUAUGUUGACCCUAACAUGAGGAUCACCCAUGUGCAUUUAGGGUCGUGCGCAGAAGGGUGCAGCUCGGA [Enatin],–,–,41.8,21.1
AAGAAACAUGAGGAUCACCCAUGUAGAAAUAUGGGAGGAUAUACAAGGACGUAAGUCAAGGUAGAAGGCCUAAGAA [Mat - Same State 1 - Meechl mod - D135],–,–,97,26
AUAACACAUGAGGAUCACCCAUGUAGAAACAAGUCAGGAUAUCCGAUCCACAUGUGAAAAGGAGAAGGGACACUAA [SS 1 Tesla 6],–,–,146,37.4
AAAACACAUGAGGAUCACCCAUGUGCCUAACUCGCAGGAUAUUUCUCGAUUAAAUGAUAGGAAGAAGGGUGAUAAA [Nob's Hobby 37 - Jieux - Same State 1],–,–,39.4,110

Sequence,apparent KD of MS2 coat protein ([1]; input ligand: FMN 200 uM) [nM],apparent KD of MS2 coat protein ([1]; input ligand: none) [nM],apparent KD of MS2 coat protein [2] [nM],apparent KD of MS2 coat protein [3] [nM]
AAUACACAUGGUCAGGAUAUCGCAGCUAGGACAUGAGGAUCACCCAUGUCGCAUGUAACUGUAACCGAGAAGGGACAGGGUGAUC [JR_SS002_Sub411],–,–,92.6,123
AAUAUACAUGAGGAUCACCCAUGUGAAAAUAUGGGAGGAUAUCGGAAAAAAAAAAAAAAACGAGAAGGCCCAAAAA [SS! 1 MT 13],–,–,119,20.8
UGGAAGGAGAGAGAGGAUAUCCAAAGGAAAACAUGAGGAUCACCCAUGUAGAAGGUAGGAAAUUGGGAGAAGGCUCAAGAGAGAG [salish99-ss2-117],–,–,27.5,17
GAGGACAUAGGAUAGGAUAUAUGAAUAAUUACAUGAGGAUCACCCAUGUCCAUUUAUAUGGGAACAUAGAAGGGUUGUAGUUAUC [SameState2 Malc#34],–,–,683,1070
AACAAUCUAUCUGAGGAUAUAUGUCGAAAGACAUGAGGAUCACCCAUGUGAAAACAUGAAAAAACAUAGAAGGCAGAUAGAUUGA [SS2: 1136],–,–,54.3,28.5
AAAAGACAUGAGGAUCACCCAUGUGAAAACGUAGGAGGAUAUGUCGUGAAAAAAGACUUGGCAGAAGGCCUGUGUC [SS1 - 43],–,–,90.7,47
GAAAAACAUGAGGAUCACCCAUGUGUAAACAAGGGAGGAUAUACAAAGACGUAAGUCAAAGUAGAAGGCCUAAAAG [Garnet 38],–,–,47.1,25.6
"GACAAACAUGAGGAUCACCCAUGUAGACAUAUGGGAGGAUAUACACAGACGAAAGUCACAGUAGAAGGCCUACAAG [77%, Mat - Mod of Eli - With 5 more C's]",–,–,82.4,26.9
AAUAAACAUGAGGAUCACCCAUGUUUUAAUAGUUGAGGAUAUAAGGGUGAAAAUAGCAUAUUAGAAGGCGAGUGUA [SameState1 Malc#14],–,–,31.7,32.7
"AGGAAACAUGAGGAUCACCCAUGUAAAAAAUAGGGAGGAUAUACUAGAAGAAACAAAAUAGUAGAAGGUCCAAAAA [75%, Ex sub1, 24]",–,–,27.6,18.4
AGAAAACAUGAGGAUCACCCAUGUAGAAAUAUGGGAGGAUAUACGAAGACGAAAGUCAAAGUAGAAGGCCUAAAGA [Mat - Same State 1 - Eli mod - D101],–,–,77.6,23.6
GAAAAACAUGAGGAUCACCCAUGUGUAAAUAUGGGAGGAUAUACAAAGACGGAAGUCAAAGUAGAAGGCCUAAAAG [Mat - Same State 1 - Eli mod - D11],–,–,111,94.3
AAUAUAUUAAGUGAGGAUAUCAAGAAAAAAACAUGAGGAUCACCCAUGUGGGAAACACGAUAGGGUGAGAAGGUACUUAAUAUAU [Samwise Clockwise 19 - Jieux - Same State 2],–,–,42.5,84.5
AAAGACAUGGUGUAGGAUAUAUUAAUAGUCACAUGAGGAUCACCCAUGUUCAGAUAUCUGAACGAGUAGAAGGACGAUGAAAAAA [SameState2 Malc#4],–,–,130,251
AAAAGACAUGAGGAUCACCCAUGUCAAAACGUAGGAGGAUAUGUAUGGAAAACAUGCUGUACAGAAGGCCUGUGUC [SS1 - 28],–,–,17,14.2
UCCACCAUGGUACAGGAUAUGUCAGACCCGACAUGAGGAUCACCCAUGUGCGGUUCUUUUCCAACGCAGAAGGGUGCAUAGGUGG [Xevetia],–,–,43.9,17.1
AAAAGACAUGAGGAUCACCCAUGUGAAAACGUGCGAGGAUAUGUAUGGAAACUAUACUGUACAGAAGGCGCGUGUC [SS1 - 82],–,–,25.4,19.7
AGAAAACAUGAGGAUCACCCAUGUUAGUGUCAUUAAGGAUAUAGGCUUAAGAAUCUGAGACUAGAAGGUGGUGCGC [Orbeus],–,–,30.8,21.9
GACAGACAUGAGGAUCACCCAUGUACAAACGUACAAGGAUAUGUGUGGAAACCGUACUAUACAGAAGGUGUAUGUC [SS1 - 91],–,–,80.5,42
GGAGCCGGUACUGAGGAUAUUCAUAUUAAAACAUGAGGAUCACCCAUGUAGGCCAGAAAGCCUUGGGAGAAGGCAGAUCGGCUCG [Bienuslete],–,–,126,17.8

# — the supplement of paper PMC9170038
